According to US20070134249A1 (GENITOPE, published 2007):

B1: mAb clone 20H5 (antibody, V domains shown)
VH: QVQLKESGPDLVAPSQSLSITCTVSGFSLTSYGVHWVRQPPGKGLEWLVVIWSDGSTTNNSPLKSRLSISKDNSKSQVFLKMNSLQTDDTAMYYCARHWGTTVVDAMDYWGQGTSVTVSS
VL: DIQMTQTTSSLSASLGDRVIISCRASQDIRNYLNWYQQKPDGTVKLLIYYTSQLHSGVPSRFSGSGSGTDYSLTINNLSEQEDIATYFCQQYDTLPWTFGGGTKLEIKR
notes: Mouse hybridoma mAb, fusion 10 (immunogen fully human PIN574 Id protein)
B2: mAb clone 15E8 (antibody, V domains shown)
VH: QVQLQQPGAELVMPGASVKMSCKASGYTFTDYWMHWVKQRPGQGLEWIGTIDTSDSYTNYNQKFKGKATLTVDESSSTAYMQLSSLTSEDSAVYYCVRWKKYGNYFFDYWGQGTTLTVSS
VL: DIVMTQSHKFMSTSVGDRVSITCKASQDVNTAVAWYQQKPGQSPKLLIYWASTRHTGVPDRFTGSGSGTDFSLTISSVQAEDLGLYYCQQCYSTPYAFGGGTKLEIKR
notes: Mouse hybridoma mAb, fusion 16 (immunogen PIN116)

Experiments:
[1] = target: T1, PIN149 fully human Id protein (HV3-23 / KV4-1) (human); experiment: SPR (BIACORE 2000); mAb captured on anti-mouse surface, fully human Id protein as analyte
T1 construct: Recombinant patient-derived idiotype immunoglobulin used as antigen; also called PIN149 Id protein; Immunogen (for 3C9, 6C9, 10H7, 15E1); not shown: human immunoglobulin heavy chain constant region, isotype G3 (HCG3); human immunoglobulin kappa light chain constant region (KC)
T1 sequence (VH, as listed by the source, chain 1 of 2): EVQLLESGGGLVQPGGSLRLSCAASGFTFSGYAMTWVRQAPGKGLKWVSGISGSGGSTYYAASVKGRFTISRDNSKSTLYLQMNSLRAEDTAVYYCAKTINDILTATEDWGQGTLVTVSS
T1 sequence (VL, as listed by the source, chain 2 of 2): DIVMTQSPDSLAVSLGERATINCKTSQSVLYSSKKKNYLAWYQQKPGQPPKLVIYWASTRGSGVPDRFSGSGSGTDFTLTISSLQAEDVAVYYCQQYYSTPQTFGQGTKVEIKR
Experimental: (§1) Binding constants were also determined for three of the sequenced clones (3C9, 10H7, and 20H5), as well as for two additional clones (6C9 and 15E1). The association and disassociation rates were measured by surface plasmon resonance using a BIACORE 2000 machine.
(§2) In addition, based on ELISA results, PIN185 was used as a positive control Id protein for 10H7 and 15E1 and a negative control Id protein for 3C9 and 6C9 and PIN149 was used as a non-binding Id protein for 20H5. Each mAb was captured onto an anti-mouse surface and tested for binding to the fully human Id protein. Following the mAb capture phase of the assay for the (@2 ug/ml), the fully human Id proteins were all diluted to a starting concentration of 250 nM and tested in a three fold dilution series. Each concentration was tested in duplicate. The running buffer contained PBS plus 0.005% tween-20 and 0.1 mg/ml BSA as a carrier. Binding data were collected at 25° C. […] The other data sets all fit well to a single site interaction model.

[2] = target: T2, PIN574 fully human Id protein (HV4-39 / LV1-40) (human); experiment: SPR (BIACORE 2000); mAb captured on anti-mouse surface, fully human Id protein as analyte, 25 C
T2 construct: Recombinant patient-derived idiotype immunoglobulin used as antigen, fully human form; also called Immunogen (for 20H5); not shown: human immunoglobulin heavy chain constant region, isotype G3 (HCG3); human immunoglobulin lambda light chain constant region (LC)
T2 sequence (VH, as listed by the source, chain 1 of 2): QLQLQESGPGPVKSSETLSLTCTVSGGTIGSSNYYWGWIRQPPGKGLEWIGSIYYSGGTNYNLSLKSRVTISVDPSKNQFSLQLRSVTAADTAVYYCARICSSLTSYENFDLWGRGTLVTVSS
T2 sequence (VL, as listed by the source, chain 2 of 2): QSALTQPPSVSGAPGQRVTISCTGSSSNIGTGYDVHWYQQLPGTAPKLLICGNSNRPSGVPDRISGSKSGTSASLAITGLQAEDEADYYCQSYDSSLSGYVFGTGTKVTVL
Experimental: as §1, §2

662 = target: T3, 662; experiment: ELISA; design: key to grade: 0 = <0.5 OD, 1 = 0.5-1.0 OD, 4 = 1-4 OD
T3 construct: fully human Id protein; also called PIN662
T3 sequence (heavy, as listed by the source): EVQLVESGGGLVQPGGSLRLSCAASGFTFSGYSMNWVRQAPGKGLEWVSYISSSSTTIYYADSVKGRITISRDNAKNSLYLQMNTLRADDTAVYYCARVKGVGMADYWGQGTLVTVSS
Excerpt: (§3) Before specificity screening, all of the clonal immunogen-positive hybridoma supernatants were re-screened on the immunogen, a non-family member Id protein, and KLH, if animals were immunized with Id protein that has been conjugated KLH. As described above, this screen identifies HC-specific clones but not mAbs against the light chain constant region. Clones identified positive to the immunogen and KLH were […]. Those found positive to the immunogen but not to the non-family member Id protein or KLH were tittered on the immunogen. In addition to normalizing for different binding affinities and concentrations, each hybridoma supernatant was titered on the fully human form of the Id protein used as the immunogen(s) for the V regions. The titer or dilution resulting in an ELISA absorbance of 2.5 to 3 OD after 30 min. incubation time was then used. Hybridoma specificity was determined by screening against available Id proteins expressing the same HV and KV or LV as well as different HV, KV and LV. The final ELISA results are expressed as follows: 0 (<0.5 OD), 1 (0.5-1.0 OD), or 4 (1-4 OD). Positive hybridoma supernatants are categorized according to specificity: anti-Id, anti-constant region (HC, KC or LC), or V region (HV, KV, LV family or family member).
(§4) In general, the fully human Id protein or proteins containing the immunogen V regions were coated onto 96-well ELISA plates at 2.5-5 ug/mL in carbonate buffer pH 9.6 and incubated at 4° C. for up to 14 days. On the day of the ELISA, plates were brought to RT and blocked with Tris-Tween-20, pH 7.6 for 15-60 min. at RT. Following a NaCl and Triton X-100 wash, diluted hybridoma cell culture supernatants were incubated overnight at 4° C. Hybridoma supernatant dilutions ranged from 1:2 to 1:25 and were prepared in PBS with 5% BSA. Plates were washed and incubated with HRP-conjugated goat anti-mouse IgG-specific detecting antibody. A chromogenic substrate (TMB) was used to measure the amount of mouse antibody bound to each well. The reaction was stopped at or before 30 minutes with IN H2SO4 and plates were read immediately. Absorbency readings at 450 nm ranging between 0-4 OD and using Molecular Devices plate reader and SOFTMAX PRO software.

647 = target: T4, 647; experiment: ELISA; design: key to grade: 0 = <0.5 OD, 1 = 0.5-1.0 OD, 4 = 1-4 OD
T4 construct: fully human Id protein; also called PIN647
T4 sequence (VH, as listed by the source, chain 1 of 2): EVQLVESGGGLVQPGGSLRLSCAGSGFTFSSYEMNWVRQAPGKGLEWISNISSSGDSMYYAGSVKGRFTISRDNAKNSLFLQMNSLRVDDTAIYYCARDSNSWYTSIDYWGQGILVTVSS
T4 sequence (VL, as listed by the source, chain 2 of 2): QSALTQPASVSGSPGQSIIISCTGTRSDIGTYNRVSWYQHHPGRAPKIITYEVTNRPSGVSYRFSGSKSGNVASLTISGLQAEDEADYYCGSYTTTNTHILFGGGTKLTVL
Excerpt: as §3, §4

116 = target: T5, 116; experiment: ELISA; design: key to grade: 0 = <0.5 OD, 1 = 0.5-1.0 OD, 4 = 1-4 OD
T5 construct: fully human Id protein; also called PIN116
T5 sequence (VH, as listed by the source, chain 1 of 2): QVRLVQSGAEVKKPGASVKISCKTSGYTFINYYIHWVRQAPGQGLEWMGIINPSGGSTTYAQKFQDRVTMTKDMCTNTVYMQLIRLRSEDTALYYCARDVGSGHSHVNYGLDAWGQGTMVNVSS
T5 sequence (V domain, as listed by the source, chain 2 of 2): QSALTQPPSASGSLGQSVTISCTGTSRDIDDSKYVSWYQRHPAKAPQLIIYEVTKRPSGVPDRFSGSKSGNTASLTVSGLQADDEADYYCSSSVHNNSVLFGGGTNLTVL
Excerpt: as §3, §4

552 = target: T6, 552; experiment: ELISA; design: key to grade: 0 = <0.5 OD, 1 = 0.5-1.0 OD, 4 = 1-4 OD
T6 construct: H1-18 L2-8; also called PIN552
Excerpt: as §3, §4

604 = target: T7, 604; experiment: ELISA; design: key to grade: 0 = <0.5 OD, 1 = 0.5-1.0 OD, 4 = 1-4 OD
T7 construct: H4-34 L2-8; also called PIN604
Excerpt: as §3, §4

787 = target: T8, 787; experiment: ELISA; design: key to grade: 0 = <0.5 OD, 1 = 0.5-1.0 OD, 4 = 1-4 OD
T8 construct: also called PIN787
Excerpt: as §3, §4

625 = target: T9, 625; experiment: ELISA; design: key to grade: 0 = <0.5 OD, 1 = 0.5-1.0 OD, 4 = 1-4 OD
T9 construct: H4-61 L2-8; also called PIN625
Excerpt: as §3, §4

559 = target: T10, 559; experiment: ELISA; design: key to grade: 0 = <0.5 OD, 1 = 0.5-1.0 OD, 4 = 1-4 OD
T10 construct: H3-15 L2-23; also called PIN559
Excerpt: as §3, §4

746 = target: T11, 746; experiment: ELISA; design: key to grade: 0 = <0.5 OD, 1 = 0.5-1.0 OD, 4 = 1-4 OD
T11 construct: H4-39 L2-8; also called PIN746
Excerpt: as §3, §4

[3] = target: T2, PIN574 fully human Id protein (HV4-39 / …); experiment: ELISA; design: key to grade: 0 = <0.5 OD, 1 = 0.5-1.0 OD, 4 = 1-4 OD
Excerpt: as §3, §4

710 = target: T12, 710; experiment: ELISA; design: key to grade: 0 = <0.5 OD, 1 = 0.5-1.0 OD, 4 = 1-4 OD
T12 construct: H1-8 L2-8; also called PIN710
Excerpt: as §3, §4

Binder | binding result [1] | Kd [2] [nM] | koff [2] [s⁻¹] | kon [2] [M⁻¹ s⁻¹] | grade 662 | binding result 647 | grade 116 | grade 552 | grade 604 | grade 787 | grade 625 | grade 559 | grade 746 | binding result [3] | grade 710
B1 | no binding | 1.92 | 0.000146 | 75900 | – | – | – | – | – | – | – | – | – | – | –
B2 | – | – | – | – | 4 | no binding | 4 | 4 | 4 | 1 | 4 | 4 | 4 | no binding | 4
